Data on eight sequences can be found in patent US6903185.

Series [1] has as its target 268//NRE (six-finger fusion, Zif268 fingers - longer linker - NRE fingers) (synthetic) (UniProt P08046). Description: EMSA. The note with it: room temp.
Series [2] deals with NRE peptide (three-finger Zif268 variant selected by phage display) (synthetic) (UniProt P08046). The experiment in a line: EMSA. (In general: In EMSA bound probe runs differently from free probe, usually more slowly.)
In series [3] the target is 268//NRE (six-finger fusion, longer linker) (synthetic) (UniProt P08046). Description: cell_activity. The settings on record: VP16-activated transcription, 293 cells.
Series [4] has as its target 268/NRE (six-finger fusion, shorter linker RQKDGERP) (synthetic) (UniProt P08046). Description: cell_activity. The settings on record: 293 cells.
The target in series [5] is NRE peptide (three-finger Zif268 variant) (synthetic) (UniProt P08046). The experiment in a line: cell_activity. The note with it: 293 cells.
Series [6] concerns the target Zif268 and NRE peptides co-expressed as separate chains (synthetic) (UniProt P08046+P08046). The experiment in a line: cell_activity. The note with it: co-expression of unlinked peptides; 293 cells.

Consider “TCTGCAAGGGTTCAGCGTGGGCGGTAAG (double strand) [NZ site]”, for which the Kd in series [1] (calculated from koff/kon, direct titration <1.0 pM, pH 7.0, 100 mM NaCl, 5 mM MgCl2, Zn) was 0.0021 pM; in series [2] (apparent Kd with 0.1 nM Zif268 prebound to neighboring site), 60 pM; in series [2] (apparent Kd, NRE peptide alone) it was 180 pM.

On to “AAGGGTTCAGGCGTGGGCG (double strand) [N/Z site in luciferase reporter promoter]”, for which the activity (fold repression) in series [3] was determined as 72; in series [4], 68; in series [5], 1.8; in series [6] it was 8.5.

For “TCTGCAAGGGTTCAGTGCGTGGGCGGTAAG (double strand) [N//Z site]”, the Kd in series [1] (calculated from koff/kon, direct titration <1.0 pM) was 0.003 pM.

Take “GTGTGTGTGTGATCTGCGTGGGCGGTAAG (double strand) [Z site]”: in series [1] (exact Kd not determined, smeared band), the Kd turned out to be 10 pM.

On to “TCTGCAAGGGTTCAGGCGTGGGCGGTAAG (double strand) [N/Z site]”, for which the Kd was 0.0037 pM in series [1] (calculated from koff/kon, direct titration <1.0 pM, p113 states 3.8 fM) and 180 pM in series [2] (room temp).

In series [1], “TCTGCAAGGGTTCAGGCGACACCAACCAA (double strand) [N site]” showed a Kd of 190 pM.

For “AAGGGTTCAGTGCGTGGGCG (double strand) [N//Z site in luciferase reporter promoter]”, the activity (fold repression) in series [3] is 47; in series [4] (linker modelled too short for all six fingers to bind), 22; in series [5], 2.7.

“AAGGGTTCA (double strand) [N site in luciferase reporter promoter]” had an activity (fold repression) in series [5] of 1.9.
